Experimental data as given in patent US20090192048A1, “METHOD OF PRODUCING A […] AGENT FOR BINDING A LIGAND” (priority 2005, published 2009).
Ends that are not written are not given here.

How the values were obtained:
Type in all cases: physicochemical
[1] = Retention of peptides 2DOS-1 to 2DOS-16 on a hydrophobic surface (polypropylene microtitre plate wells), water wash; details: 400V scan
Method in brief: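 10 μM peptides, with TAMRA, in 10 mM tris-HCl pH 8.0 in 50% acetonitrile, dried overnight in polypropylene wells, then washed ten times with water. Retained peptide resuspended in the same solvent and fluorescence imaged (532 nm excitation, 580 nm filter). Quantified from 400 V scans.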

[2] = pH resistance of peptide 2DOS-2 deposited onto a polypropylene hydrophobic surface; details: for Retained fluorescence: 100 mM phosphate buffer 30 minutes
Experimental: The pH resistance of peptide 2DOS-2 (see above) deposited onto a polypropylene hydrophobic surface was investigated:
Twelve 50 μl aliquots of peptide 2DOS-2 in 10 mM tris-HCl (pH 8.0) in 50% (v/v) aqueous acetonitrile were dried down in the wells of a Costar microtitre plate.
The peptide samples were allowed to evaporate to dryness in the dark.
The dried peptide samples in the first eleven wells were incubated with 200 μl of 100 mM phosphate buffer for 30 minutes at room temperature according to the scheme shown in Table 3:
All supernatants were pipetted off and the residual surface-bound peptides in all twelve wells were finally resuspended in 50 μl of 10 mM tris-HCl (pH 8.0) in 50% (v/v) aqueous acetonitrile and the microtitre plate was imaged at 200 μm resolution on a Typhoon Trio Plus variable mode imager (Amersham Biosciences) with the green (532 nm) laser and the 580 BP 30 filter at the PMT voltages indicated below and at normal sensitivity. The scan height was set at +3 mm and the sample was pressed during scanning.
The fluorescence images were analysed using ImageQuant TL v2003.03 (Amersham Biosciences).
Quantification data for peptide 2DOS-2 retention (using data from the 300V scan) are given in Table 8 and graphically in FIG. 19: […]

[3] = Retention of peptides on Greiner polystyrene V-bottom wells; details: 400V scan
Method in brief: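 Peptides (5 μM) and TAMRA dried from 5 mM tris-HCl pH 8.0 in 75% acetonitrile in V-bottom wells; some wells washed 15 min at room temperature with 1 M NaCl in 10 mM tris-HCl pH 8.0. Residue redissolved in 10 mM tris-HCl pH 8.0/50% acetonitrile; retained fluorescence imaged with 532 nm excitation, 580 BP 30 filter.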

## N-TAMRA-Phe-Asp- Phe-Ala-Phe-Ser- Phe-Lys-Phe-C ({TAMRA}-FDFAFSFKF) [Peptide 2DOS-2]
[1]; 100 μl of 10 μM peptide before drying and washing
  Initial fluorescence (×10^3): 32,492 ×10^3
[1]; dried, washed ten times with 250 μl water, resuspended
  Recovered fluorescence (×10^3): 15,704 ×10^3
[2]; 300V scan, unwashed well
  Untreated fluorescence: 815,706
[2]; pH 4.51 to 8.52
  Stability of retention on polypropylene over pH (in words): stable over a broad range of pH values
[2]; wash pH 4.51
  Percent retention: 83%
[2]; wash pH 4.51, 300V scan
  Retained fluorescence: 681,015
[2]; wash pH 5.65
  Percent retention: 71%
[2]; wash pH 5.65, 300V scan
  Retained fluorescence: 582,482
[2]; wash pH 6.02
  Percent retention: 67%
[2]; wash pH 6.02, 300V scan
  Retained fluorescence: 548,329
[2]; wash pH 6.25
  Percent retention: 67%
[2]; wash pH 6.25, 300V scan
  Retained fluorescence: 542,595
[2]; wash pH 6.47
  Percent retention: 72%
[2]; wash pH 6.47, 300V scan
  Retained fluorescence: 589,528
[2]; wash pH 6.62
  Percent retention: 69%
[2]; wash pH 6.62, 300V scan
  Retained fluorescence: 566,496
[2]; wash pH 6.79
  Percent retention: 71%
[2]; wash pH 6.79, 300V scan
  Retained fluorescence: 576,655
[2]; wash pH 6.98
  Percent retention: 70%
[2]; wash pH 6.98, 300V scan
  Retained fluorescence: 570,653
[2]; wash pH 7.18
  Percent retention: 72%
[2]; wash pH 7.18, 300V scan
  Retained fluorescence: 586,083
[2]; wash pH 7.47
  Percent retention: 75%
[2]; wash pH 7.47, 300V scan
  Retained fluorescence: 614,028
[2]; wash pH 8.52
  Percent retention: 81%
[2]; wash pH 8.52, 300V scan
  Retained fluorescence: 661,781
[3]
  Percent retention: 64%
[3]; unwashed
  Untreated fluorescence: 614,203
[3]; washed 15 minutes in 1 M NaCl in 10 mM tris-HCl (pH 8.0)
  Retained fluorescence: 392,422
